Test results from doi:10.1101/2025.09.12.675771 (bioRxiv, 2025).

Columns and labels:
[1] = molecular target: SARS-CoV-2 RBD (residues 332-527), Lambda variant (SARS-CoV-2, Lambda (C.37), L452Q | F490S)
[2] = molecular target: SARS-CoV-2 RBD (residues 332-527), BQ.1.1 variant (SARS-CoV-2, Omicron BQ.1.1, R346T | K444T | N460K)

B1: R1-32-Q61E-WT (antibody, V domains shown)
VH: EVQLVQSGAEVKKPGSSVKVSCKASGGTFSSYFISWVRQAPGQGLEWMGGIIPILGIADYAEKFQGRVTITADKSTSTAYMELSSLRSEDTAVYYCARENGYSGYGAAYNFDLWGRGTLVTVSS
VL: QSVLTQPPSVSGAPGQRVTISCTGSDSNIGAGYDVHWYQQLPGTAPKLLIYGNSNRPSGVPDRFSGSKSGTSASLAITGLQAEDEADYYCQSYDSSLSGSVFGGGTKLTVL
[1]
  binding result: binds
[2]
  binding result: binds
